Reference: patent US20240239894A1 (AstraZeneca / MedImmune, published 2024)

Key:
[1] = biological target: T1, human B7-H4 on cells (human, UniProt Q7Z7D3 25-282); test: flow cytometry on MDA-MB-468 cells (endogenous human B7-H4), MFI (geometric mean)
T1 construct: On transfected/engineered cells (HEK293, CHO, HT29, Ad293) or endogenous on human cancer cell lines; also called huB7-H4; hB7-H4
T1 sequence: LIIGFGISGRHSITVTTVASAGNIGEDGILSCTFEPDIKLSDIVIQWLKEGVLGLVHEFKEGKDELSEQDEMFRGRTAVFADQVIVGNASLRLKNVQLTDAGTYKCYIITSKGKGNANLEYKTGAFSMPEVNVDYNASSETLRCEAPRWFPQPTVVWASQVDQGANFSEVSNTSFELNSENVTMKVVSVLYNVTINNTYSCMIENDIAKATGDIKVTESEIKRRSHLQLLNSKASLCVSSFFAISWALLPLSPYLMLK

[2] = biological target: huFcγRI (human, UniProt P12314 16-288); test: SPR, equilibrium KD; equilibrium KD; huFcγRI
[3] = biological target: T1, human B7-H4 on cells; test: flow cytometry on HT29-huB7-H4 Clone 26 cells, MFI (geometric mean)
[4] = biological target: T2, recombinant human B7-H4 (tag format not stated) (human, UniProt Q7Z7D3 25-259); test: SPR, antibody capture
T2 construct: also called huB7-H4; human B7-H4 antigen
T2 sequence: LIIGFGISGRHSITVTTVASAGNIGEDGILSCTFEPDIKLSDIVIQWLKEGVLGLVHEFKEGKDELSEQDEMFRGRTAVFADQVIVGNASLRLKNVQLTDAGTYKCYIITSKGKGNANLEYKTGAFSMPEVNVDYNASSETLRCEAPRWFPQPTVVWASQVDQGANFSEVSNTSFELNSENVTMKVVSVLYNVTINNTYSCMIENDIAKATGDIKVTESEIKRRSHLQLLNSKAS

[5] = biological target: T1, human B7-H4 on cells; test: flow cytometry on HT29-huB7-H4 Clone 4 cells, MFI (geometric mean)
[6] = biological target: T2, recombinant human B7-H4 (tag format not …); test: DELFIA-ELISA on immobilized recombinant human B7-H4
[7] = biological target: human FcRn (human, UniProt P55899 24-297; P61769 21-119); test: SPR, steady state; steady state; human FcRn
[8] = biological target: T1, human B7-H4 on cells; test: cell-based or functional assay
[9] = biological target: T1, human B7-H4 on cells; test: flow cytometry on MX-1 cells (endogenous human B7-H4), MFI (geometric mean)
[10] = biological target: T3, murine B7-H4 on cells (mouse, UniProt Q7TSP5 25-257); test: flow cytometry on HEK293 JI TREX cells stably expressing murine B7-H4, MFI (geometric mean)
T3 construct: whole, on cells; also called muB7-H4
T3 sequence (looked up): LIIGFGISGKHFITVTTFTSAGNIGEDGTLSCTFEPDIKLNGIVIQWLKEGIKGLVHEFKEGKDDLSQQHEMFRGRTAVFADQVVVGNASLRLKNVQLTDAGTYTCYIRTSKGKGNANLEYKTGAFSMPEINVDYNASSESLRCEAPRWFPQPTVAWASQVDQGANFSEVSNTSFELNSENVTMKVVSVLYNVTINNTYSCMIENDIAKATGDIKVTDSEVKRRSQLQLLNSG

[11] = biological target: T4, cynomolgus monkey B7-H4 on cells (cynomolgus monkey, UniProt A0A2K5U6P5 25-282); test: flow cytometry on HEK293 JI TREX cells stably expressing cynomolgus monkey B7-H4, MFI (geometric mean)
T4 construct: whole, on cells; On HEK 293 cells; also called cynoB7-H4
T4 sequence: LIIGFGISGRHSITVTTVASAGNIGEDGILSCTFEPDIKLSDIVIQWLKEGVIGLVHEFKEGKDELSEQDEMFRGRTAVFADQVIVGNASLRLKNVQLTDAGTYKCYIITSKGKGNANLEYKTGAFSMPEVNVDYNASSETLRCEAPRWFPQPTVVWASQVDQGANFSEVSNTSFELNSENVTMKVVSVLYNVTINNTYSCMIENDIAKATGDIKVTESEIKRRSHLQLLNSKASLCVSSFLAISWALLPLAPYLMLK

[12] = biological target: T5, recombinant mouse B7-H4 (tag format not stated) (mouse, UniProt Q7TSP5 25-257, limits assumed); test: SPR
T5 construct: FlagHis10 or FcHis6 in the commercial antibody ELISA; also called murine B7-H4 antigen
T5 sequence (looked up): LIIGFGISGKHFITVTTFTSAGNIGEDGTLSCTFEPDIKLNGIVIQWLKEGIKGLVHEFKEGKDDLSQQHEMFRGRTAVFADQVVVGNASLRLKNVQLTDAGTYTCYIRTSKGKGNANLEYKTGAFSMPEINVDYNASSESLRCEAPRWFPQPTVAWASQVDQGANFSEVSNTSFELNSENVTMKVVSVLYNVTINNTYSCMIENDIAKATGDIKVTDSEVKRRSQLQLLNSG

[13] = biological target: T5, recombinant mouse B7-H4 (tag format not …); test: SPR; remark: listed apart in the source
[14] = biological target: T6, Human B7-H4 ECD-Flag-His10 (monomeric) (human, UniProt Q7Z7D3 25-259); test: KinExA 3200, Fab at 5, 10 or 45 nM, 25 C, N-curve analysis
T6 construct: Minimally biotinylated for KinExA; also called hB7H4-ECD-Flag-His10; B7-H4-FLAG
T6 sequence: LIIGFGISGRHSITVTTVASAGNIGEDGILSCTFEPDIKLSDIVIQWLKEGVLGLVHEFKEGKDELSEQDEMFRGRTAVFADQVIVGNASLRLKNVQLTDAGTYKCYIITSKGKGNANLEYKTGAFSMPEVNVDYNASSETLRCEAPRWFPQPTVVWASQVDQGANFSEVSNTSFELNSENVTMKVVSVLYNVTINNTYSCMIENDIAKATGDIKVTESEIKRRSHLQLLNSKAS

[15] = biological target: T2, recombinant human B7-H4 (tag format not …); test: SPR, immobilized B7-H4
[16] = biological target: T7, recombinant cynomolgus monkey B7-H4 (tag format not stated) (cynomolgus monkey, UniProt A0A2K5U6P5 25-259); test: SPR, immobilized B7-H4
T7 construct: also called cyno B7-H4
T7 sequence: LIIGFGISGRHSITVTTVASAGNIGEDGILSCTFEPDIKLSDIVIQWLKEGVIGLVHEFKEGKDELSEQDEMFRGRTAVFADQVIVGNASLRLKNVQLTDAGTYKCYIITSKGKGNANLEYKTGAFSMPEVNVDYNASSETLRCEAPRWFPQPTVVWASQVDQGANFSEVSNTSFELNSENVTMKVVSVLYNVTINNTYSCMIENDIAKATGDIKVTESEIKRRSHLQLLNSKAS

[17] = biological target: T6, Human B7-H4 ECD-Flag-His10 (monomeric); test: KinExA 3200, Fab, N-curve analysis
[18] = biological target: T2, recombinant human B7-H4 (tag format not …); test: ELISA, Maia format mAb (GLY)
[19] = biological target: T5, recombinant mouse B7-H4 (tag format not …); test: ELISA, Maia format mAb (GLY)
[20] = biological target: T2, recombinant human B7-H4 (tag format not …); test: ELISA, Maia format mAb (GLQ)
[21] = biological target: T5, recombinant mouse B7-H4 (tag format not …); test: ELISA, Maia format mAb (GLQ)

Sequence of human FcRn (P55899 24-297 limits assumed, chain 1 of 2): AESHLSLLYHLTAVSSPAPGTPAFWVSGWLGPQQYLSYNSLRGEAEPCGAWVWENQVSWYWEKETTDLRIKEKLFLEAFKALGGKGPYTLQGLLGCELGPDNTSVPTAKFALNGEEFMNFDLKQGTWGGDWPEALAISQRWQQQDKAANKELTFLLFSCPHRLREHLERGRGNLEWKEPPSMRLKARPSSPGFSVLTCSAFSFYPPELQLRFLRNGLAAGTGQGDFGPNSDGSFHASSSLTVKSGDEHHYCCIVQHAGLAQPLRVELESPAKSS
Sequence of human FcRn (P61769 21-119 limits assumed, chain 2 of 2): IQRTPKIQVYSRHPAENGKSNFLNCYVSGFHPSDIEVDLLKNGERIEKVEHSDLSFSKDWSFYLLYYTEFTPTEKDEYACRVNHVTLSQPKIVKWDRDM
Sequence of huFcγRI (P12314 16-288 limits assumed): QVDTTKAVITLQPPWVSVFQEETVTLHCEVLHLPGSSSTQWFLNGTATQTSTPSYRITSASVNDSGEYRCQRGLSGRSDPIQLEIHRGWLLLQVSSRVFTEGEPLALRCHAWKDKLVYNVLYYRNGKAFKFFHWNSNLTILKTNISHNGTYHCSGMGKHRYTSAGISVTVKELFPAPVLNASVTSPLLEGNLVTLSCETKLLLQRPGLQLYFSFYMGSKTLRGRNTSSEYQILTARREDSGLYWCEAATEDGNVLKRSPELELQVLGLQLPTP

B1: E02-GL-SG3932 (antibody, human IgG1, kappa)
heavy: not shown
light: DIQMTQSPSSLSASVGDRVTITCRASQDIRNDVGWYQQKPGKAPKRLIYAASRLQSGVPSRFSGSGSGTEFTLTISSLQPEDFATYYCLQHNSYPRTFGQGTKVEIKRTVAAPSVFIFPPSDEQLKSGTASVVCLLNNFYPREAKVQWKVDNALQSGNSQESVTEQDSKDSTYSLSSTLTLSKADYEKHKVYACEVTHQGLSSPVTKSFNRGEC
modifications: SG3932 on native cysteines (DAR about 8 for the whole antibody); SG3932 (mal-PEG8-val-ala linker with TOP1i warhead) on native cysteines through a thiosuccinimide linkage, about 8 drugs per antibody
notes: also called E02-INT-SG3932; B7-H4 targeting TOP1i-ADC; copies: 2 + 2
B1 was tested, and the “EC50 (read off the curve)” value [1] was roughly 0.08 µg/mL, the Kd [2] was 4.35 nM and the “EC50 (read off the curve)” value [3] was roughly 0.1 µg/mL. It also gave a Kd [4] of 29.3 nM, a koff [4] of 0.0028 s⁻¹ and a kon [4] of 95500 M⁻¹ s⁻¹. The “EC50 (read off the curve)” value [5] was roughly 0.07 µg/mL, the EC50 [6] was 1.71 nM and the Kd [7] was 4360 nM. For the same binder, the “IC50, cytotoxicity (CellTiter-Glo) on HT29-huB7-H4 Clone 26” value [8] was 0.036 g/mL (as printed; probably µg/mL), the “IC50, cytotoxicity (CellTiter-Glo) on MX-1” value [8] was 0.029 µg/mL and the “IC50, cytotoxicity (CellTiter-Glo, 6 days) on human B7-H4 transfected Ad293 cells” value [8] was 0.0533 µg/mL. The “EC50 (read off the curve)” value [9] was roughly 0.1 µg/mL.

B2: E02-INT (antibody intermediate of E02-GL-SG3932) (antibody, human IgG1, kappa)
heavy: not shown
light: DIQMTQSPSSLSASVGDRVTITCRASQDIRNDVGWYQQKPGKAPKRLIYAASRLQSGVPSRFSGSGSGTEFTLTISSLQPEDFATYYCLQHNSYPRTFGQGTKVEIKRTVAAPSVFIFPPSDEQLKSGTASVVCLLNNFYPREAKVQWKVDNALQSGNSQESVTEQDSKDSTYSLSSTLTLSKADYEKHKVYACEVTHQGLSSPVTKSFNRGEC
notes: also called E02-GL antibody; antibody intermediate E02-INT
In the case of B2, the “EC50 (read off the curve)” value [1] is reported as roughly 0.08 µg/mL, the “EC50 (read off the curve)” value [10] is reported as roughly 0.2 µg/mL and the “EC50 (read off the curve)” value [11] is reported as roughly 0.4 µg/mL. The “EC50 (read off the curve)” value [3] was roughly 0.07 µg/mL, the Kd [4] was 31.1 nM and the koff [4] was 0.00292 s⁻¹. For the same binder, the kon [4] was 93800 M⁻¹ s⁻¹, the “EC50 (read off the curve)” value [5] was roughly 0.05 µg/mL and the EC50 [6] was 1.98 nM. For the same binder, the “EC50 (read off the curve)” value [9] was roughly 0.1 µg/mL.

B3: E02_GL Fab (Fab, V domains shown)
VH: QVQLQQWGAGLLKPSETLSLACTVYGGSFSGYYWNWIRQPPGKGLEWIGEINHSGSTSYNPSLKSRVTISVDTSKNQFSLKLSSVTAADTAVYYCARVLYNWNVDSWGQGTLVTVSS
VL: DIQMTQSPSSLSASVGDRVTITCRASQDIRNDVGWYQQKPGKAPKRLIYAASRLQSGVPSRFSGSGSGTEFTLTISSLQPEDFATYYCLQHNSYPRTFGQGTKVEIK
notes: Fab of E02-GL; also called EO2_GL Fab; E02-INT Fab
B3 was tested, and the “fold lower affinity than for human B7-H4 antigen” value [12] was roughly 100 fold, the Kd [13] was 405 nM and the Kd [14] was 1.2 nM. The Kd [15] was 3.7 nM, the Kd [16] was 3.94 nM and the Kd [17] was 1.21 nM.

B4: E02-GLY-maia (antibody, human IgG1, kappa, V domains shown)
VH: QVQLQQWGAGLLKPSETLSLACTVYGGSFSGYYWNWIRQPPGKGLEWIGEIYHSGSTSYNPSLKSRVTISVDTSKNQFSLKLSSVTAADTAVYYCARVLYNWNVDSWGQGTLVTVSS
VL: DIQMTQSPSSLSASVGDRVTITCRASQDIRNDVGWYQQKPGKAPKRLIYAASRLQSGVPSRFSGSGSGTEFTLTISSLQPEDFATYYCLQHNSYPRTFGQGTKVEIKR
notes: Germlined with a Y substitution, Maia format
B4: binds [18]; binds [19].

B5: E02-GLQ-maia (antibody, human IgG1, kappa, V domains shown)
VH: QVQLQQWGAGLLKPSETLSLACTVYGGSFSGYYWNWIRQPPGKGLEWIGEIQHSGSTSYNPSLKSRVTISVDTSKNQFSLKLSSVTAADTAVYYCARVLYNWNVDSWGQGTLVTVSS
VL: DIQMTQSPSSLSASVGDRVTITCRASQDIRNDVGWYQQKPGKAPKRLIYAASRLQSGVPSRFSGSGSGTEFTLTISSLQPEDFATYYCLQHNSYPRTFGQGTKVEIKR
notes: Germlined with a Q substitution, Maia format
B5: binds [20]; binds [21].
